Experimental data published in a protein production outcome set (Wang et al. 2014).

Assay: label from the status in PepcDB records

Sequence	protein production
MKICHRYIAWQVLTGMVIATAILLPLFSFFDLLDQLDDVGKGTYTTWDAFLYTVMLMPRRFIQIAPFIALLGTVGALGALAVNLELVAMRVAGLSPLMIGLAPVGIGGLLIASTIALEYFVAPQFQQQATILRAVALEQGAELGKGLGIWTRNERNILRIGEMLHKGRATDIEVIHFDGEGSMTAHVHAWYADIFDESLWKLHDVTIRTFSPDRITSRKAHILQWHSFLGPDDIATLTKSPESLTPIELVKHAEFLRATGQKADAYVMALWRKVGGAIMTIAMILVAIPFIFGSVREGLGGKLILAALMGISIYLFDQIIANIGLVFQLNPIVVSVVPGMVLIAVAAHWLLRRTF	failed
MKIDGETRSARKDREIIQAATAAFISKGYDGTSMEEIATKAGASKQTVYKHFTDKETLFGEVVLSTASQVNDIIESVTTLLSEAIFMEGGLQQLARRLIAVLMDEELLKLRRLIIANADRMPQLGRAWYEKGFERMLASTASCFQKLTNRGLIQTGDPYLAASHLFGMLLWIPMNEAMFTGSNRRSKAELERHADASVEAFLAVYGVQPK	not failed
MKIEKQVNDLRIIELEKELENNPFIPILYWELGLNYLISVGEEKAEEIWSLGLLQCFTSFDEGLLSLVGFIEQHIELNKNDKQTVLILWQQIIKIVPNYLAGHLNLLVVACELKVFSAEKLAYLGTVALINSIDSGCISQQEEELLLRATLSILEFPTALSLDFLRSSIPLLVNLPWCDAVMAFANSMVYDKQLFSYGVEIAEICLQYSPNNLFILNDLIRFYGLRKDQDALLRTARNLLNIFRQQDFEPDFGFYLSSRLLSAFMTGNDWEQVQSIASIFKDYFILLQNEKSVVLNNFLRDRFWGLGFSLLYLFDEPESNRRCLNFNASIFQQNLTENQNKTICQEENLPKKKQVSLKRIGYIAHTLRQHSVGWLCRWLFKYHDREKFEIFVYLIGQPEDELTENWIYPNVSKYYHFGRDKNEIIKQIKQDQIQILVDLDVLTHNITAQVLAHKPAPVQVSWLGSDASGLPAIDYFIVDPYVVPDDAEGYYREKLWRLPQTYLAVDGFEMGTPTLSREQLGIKPNTVIYLSVQNKIKSNPNILKLQLQILQSVPDSVFLIKGGGDNELIRAMVEQLAKEMGLDLHRIRFLPKDGDEMTHRANLSIADVVLDTYPYNGATTTLETLWMEVPLVTRVGKQFASRNSYTFLTQLNIREGLAWNDQEYVYWGTRFGLEKSLREKVKNELNLGKYKSKLWRAKDFTQELELAYEGMWNGDLD	failed
MKIFGTDGVRGKAGVKLTPMFVMRLGIAAGLYFKKHSQTNKILIGKDTRKSGYMVENALVSALTSIGYNVIQIGPMPTPAIAFLTEDMRCDAGIMISASHNPFEDNGIKFFNSYGYKLKEEEEKAIEEIFHDEELLHSSYKVGESVGSAKRIDDVIGRYIAHLKHSFPKHLNLQSLRIVLDTANGAAYKVAPVVFSELGADVLVINDEPNGCNINDQCGALHPNQLSQEVKKYRADLGFAFDGDADRLVVVDNLGNIVHGDKLLGVLGVYQKSKNALSSQAVVATNMSNLALKEYLKSQDLELKHCAIGDKFVSECMQLNKANFGGEQSGHIIFSDYAKTGDGLVCALQVSALVLESKQVSSVALNPFELYPQSLVNLNVQKKPPLESLKGYSALLKELDKLEIRHLIRYSGTENKLRILLEAKDEKLLESKMQELKEFFEGHLC	failed
MKIFRNPPLVMSGLTLGLFALGNLLKLYHPSLRHLLSIIALLLYLFLILSILKNLSQALEQIKHPLIASIFPTFFMSGMLLAGYIQTFPFLEDWVTLISLTIWWLAFLGNAGLIAYFTIKFVIPFHWEHVFPSWSVLYVGIAVATLTAPISGQYILGQIIFWTCLLLTLLILPLMTIKAYCIGLPETAKPNICTFCAPLSLLLAGYLKTFPPEQSPNTNFVWLLLLASQLLYFFVVLQLPVLLKREFNPGFSAFTFPFAISATALRSAGSYLHLQLPLFQLLVKLEELLASILVLFILYSYLRFLSKQEDLPSN	failed
MKIFRSIDEIREPLPSPVVTIGNFDGVHLGHREIFRRVKREAARLDGVSMVITFTPHPLKVLGLRKELRLINTYAEKELLIEASGIDCLLTIPFTAEFAAIGAERFVGEILVGRIGVKKLVIGYDYAFGRNREGDVAMLRRMGEEHGFEVEVLEQIASGETVYSSSAVRRMIAAGNVREVVSLIGRHYSVGGTVVHGRRRGKDLGFPTANLRTEKELIPAAGVYAVKVRVDDTIRDGACNIGNNPTFGNEEVTVEVHILDFDGDLYGKEIRVYFVDRVREELRYPDLNALKEGISRDVARCRELLAGVSIIEYRDYLGGDAA	failed
MKIGIIGAGNIGGTLARKFVAAGHSVKLAGSKSPDSIRELAENIGAEPVAAVEAVKDVEVIVLSIPFAKIPEVAGLFSTVPAEVVVIDTSNYYPQLGTRIPEVDDGELESVWAREQLGRPIIKAFNAIIAKTLADGGKPAGTDNRIAIPVAGDSLAGKAIAQQLLDDAGFDALDAGTIADSWRQQPGMPAYCTELPLAALHSALNVAVKGDAPHLRDALMAEFFGGDIPPSHETIVARNRAVSA	failed
MKIGRYEVCGLLGRGGMGVVYKVRQPVTGRVAALKLLKPADILVDLAGMDALREGFLHEATVMASLDHPHVAAVWDVDEAGGLPFFVMEYYCLNLGLLMGESYRVEAPTRRLPLERAVRYARQTLEALRRMHHEGIVHRDVKPFNIMVTGDDAVKLIDFGLSRLRGETRLSPRGVKVGSPYYAPPEQESAPDAVDARADLYPVGVMLFRMLTGVLPTDEERMKDGRIPRASALSDELDEGWDAFFDTAMAADPARRFPDAASMLAALARCEAAWRKQVEATCRLIPEQAAGPGDASDMRHDAGHESVQAGQTDETGQAGQAGQAGQAVTCEGAPAASGGVRCRPVKVGVHEARATFALDALWRPASAARQGLEARDDGTVSHAATGLQWETGGCDFPLTRDEAEAYVEARNALRFAGHDDWRLPTVDELLTLVDAGVTVGDPCVASVFAPLPDPLWTSDRKSYMASWFVSAAMGFVGWQDDTCRFGVRLVRGGSARCRE	failed
MKIGVYGASGRIGKLLLEELKGGYKGLALSSVFVRQKCETDFSSFSHAPLVTNDLKAFVRACECVIDFSLPKGVDNLLEALLECPKILVSGTTGLEKETLEKMQQLALKAPLLHAHNMSIGIMMLNQLAFLTSLKLKDADIEIIETHHNLKKDIPSGTALSLYETCAKARGYDEKNALITHREGLRSKESIGIAALRGGDVAGKHTIGFYLEGEYIELSHTATNRSIFAKGALEVALWLKDKAAKKYEINEMFG	failed
MKIIDKLYEKVSKNGFVCIGLDSSIDYIPENMKAGKSVSEALFSYNKEIIDQTYDVCAIYKLQIAYYESYGIEGMIAYRDTLSYLREKDLLSIGDVKRSDIAASAKMYAKAHFEGDFETDFITLNPYMGMDSIEPYEEYIEKGDKGVFVLLRTSNPGAKDFEVLPVDGEEFFYKVGDKMRELNEKYIGKSGFGPIGLVVGATHSEEVEKIRKRYDKMFFLIPGFGAQKADSMNVYKLLEGLNGGVVNSSRAILKNWQNYEDGSEKVGYYARKKAIETYEEIKANEVL	not failed
MKIIKRAIISLIILSLLISITMSNASASEELYYSVEYKNTATFNKLVKKKSLNVVYNIPELHVAQIKMTKMHANALANYKNDIKYINATCSTCITSEKTIDRTSNESLFSRQWDMNKITNNGASYDDLPKHANTKIAIIDTGVMKNHDDLKNNFSTDSKNLVPLNGFRGTEPEETGDVHDVNDRKGHGTMVSGQTSANGKLIGVAPNNKFTMYRVFGSKKTELLWVSKAIVQAANDGNQVINISVGSYIILDKNDHQTFRKDEKVEYDALQKAINYAKKKKSIVVAAAGNDGIDVNDKQKLKLQREYQGNGEVKDVPASMDNVVTVGSTDQKSNLSEFSNFGMNYTDIAAPGGSFAYLNQFGVDKWMNEGYMHKENILTTANNGRYIYQAGTSLATPKVSGALALIIDKYHLEKHPDKAIELLYQHGTSKNNKPFSRYGHGELDVYKALNVANQKAS	not failed
MKIITCYKSVPDEQDIVVNNADGSLDFSRANNKISQYDLNAIEAANQLKTQLDGIQITAMSVGGNALTNAKARKDVLSRGADDLVVVVDEQLEASLPYQTATVLAAAATKQGYDLILCGDGSADLSSQQVSLLVGEILNIPAINGVNKIVSITTDSITVERELENEIETLTITLPAVIAVSTDINSPQIPSMKAILGAAKKPVQQWSVADLGLEPITPRSEQTVLAPKQKVRQRIIIEGDGDDQIAEFAEYLRKIIK	failed
